This note sets out measurements from IntAct's records for PubMed 19236849.

To fix the notation:
B1: NAD-dependent protein deacetylase sirtuin-1 (Homo sapiens), Q96EB6 (parent)
chain: MADEAALALQPGGSPSAAGADREAASSPAGEPLRKRPRRDGPGLERSPGEPGGAAPEREVPAAARGCPGAAAAALWREAEAEAAAAGGEQEAQATAAAGEGDNGPGLQGPSREPPLADNLYDEDDDDEGEEEEEAAAAAIGYRDNLLFGDEIITNGFHSCESDEEDRASHASSSDWTPRPRIGPYTFVQQHLMIGTDPRTILKDLLPETIPPPELDDMTLWQIVINILSEPPKRKKRKDINTIEDAVKLLQECKKIIVLTGAGVSVSCGIPDFRSRDGIYARLAVDFPDLPDPQAMFDIEYFRKDPRPFFKFAKEIYPGQFQPSLCHKFIALSDKEGKLLRNYTQNIDTLEQVAGIQRIIQCHGSFATASCLICKYKVDCEAVRGDIFNQVVPRCPRCPADEPLAIMKPEIVFFGENLPEQFHRAMKYDKDEVDLLIVIGSSLKVRPVALIPSSIPHEVPQILINREPLPHLHFDVELLGDCDVIINELCHRLGGEYAKLCCNPVKLSEITEKPPRTQKELAYLSELPPTPLHVSEDSSSPERTSPPDSSVIVTLLDQAAKSNDDLDVSESKGCMEEKPQEVQTSRNVESIAEQMENPDLKNVGSSTGEKNERTSVAGTVRKCWPNRVAKEQISRRLDGNQYLFLPPNRYIFHGAEVYSDSEDDVLSSSSCGSNSDSGTCQSPSLEEPMEDESEIEEFYNGLEDEPDVPERAGGAGFGTDGDDQEAINEAISVKQEVTDMNYPSNKS

Variants of B1 are the subject of this test. Particulars: with csk21_human CSNK2A1, P68400.
csk21_human CSNK2A1, P68400, sequence (P68400 whole entry, looked up): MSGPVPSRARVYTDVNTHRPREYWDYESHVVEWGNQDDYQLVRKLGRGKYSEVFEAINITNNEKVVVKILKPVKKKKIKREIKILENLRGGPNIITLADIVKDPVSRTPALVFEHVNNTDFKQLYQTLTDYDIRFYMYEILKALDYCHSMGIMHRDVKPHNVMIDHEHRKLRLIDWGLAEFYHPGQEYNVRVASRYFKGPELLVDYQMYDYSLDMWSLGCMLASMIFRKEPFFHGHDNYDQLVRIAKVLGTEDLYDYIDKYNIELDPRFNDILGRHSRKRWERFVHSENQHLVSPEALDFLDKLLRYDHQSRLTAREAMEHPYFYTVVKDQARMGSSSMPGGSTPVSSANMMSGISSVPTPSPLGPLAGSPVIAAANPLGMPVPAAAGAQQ
For S659A;S661A, the “effect of a mutation on the interaction” value is “decreasing interaction”.
